Tests used:
[1] = system: avathrin (Amblyomma variegatum thrombin inhibitor)
[2] = system: avathrin K10R
[3] = system: ultravariegin
[4] = system: β-avathrin
Chain of β-avathrin (chain, as listed by the source): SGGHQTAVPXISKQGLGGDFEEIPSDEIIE

Chain of avathrin (Amblyomma variegatum thrombin inhibitor) (chain, as listed by the source): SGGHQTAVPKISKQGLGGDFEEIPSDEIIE
Chain of ultravariegin (chain, as listed by the source): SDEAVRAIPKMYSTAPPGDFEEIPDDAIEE
Chain of avathrin K10R (chain, as listed by the source K10R): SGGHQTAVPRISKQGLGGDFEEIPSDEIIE

Substance: human α-thrombin (recombinant)
- time to complete cleavage by thrombin (30:1 peptide to enzyme) [1]: avathrin was completely cleaved at ~10 h
- time to complete cleavage by thrombin [2]: resulting in complete cleavage within 3 h
- time to complete cleavage by thrombin [3]: At 18 h, ultravariegin was completely cleaved
- cleavage by thrombin [4]: it was not cleaved by thrombin for up to 72 h

— US20190002511
